Results from publication PMC7325057.

System: CC(=O)N(O)CCCC[C@H](N)C(=O)O
Test: purified protein
Conditions: 2 mM citrate, 2 mM ATP, 15 mM MgCl2, pH 7.5, 37 °C, apparent

How did the Km turn out when “hvKP IucA (Klebsiella pneumoniae subsp. pneumoniae)” was run?
The Km was 0.79 ± 0.02 mM.

And the kcat?
Its kcat is 0.85 ± 0.02 s⁻¹.

And the kcat/Km?
Its kcat/Km is 1080 M⁻¹ s⁻¹.
